In patent US20140093496A1 (Chugai, published 2014):
Numbering of substitutions follows the chain as printed. Numbers in names are those of the source. Blank lines part the entries; values can stand above or below the binder they belong to.

Assays:
[1] = target: T1, FcγRIIIa type V extracellular domain with C-terminal His tag (human, UniProt P08637 17-208); assay: SPR (Biacore), antibody captured, FcγR analyte
T1 construct: extracellular domain; also called FcγRIIIaV; FcgRIIIaV; not shown: His tag at the C terminus
Description: (§1) Furthermore, KD(IIaR)/KD(IIb) and KD(IIaH)/KD(IIb) in the table respectively show the value obtained by dividing the KD value of each variant for FcγRIIaR by the KD value of each variant for FcγRIIb, and the value obtained by dividing the KD value of each variant for FcγRIIaH by the KD value of each variant for FcγRIIb. KD(IIb) of the parent polypeptide/KD(IIb) of the altered polypeptide refers to a value obtained by dividing the KD value of the parent polypeptide for FcγRIIb by the KD value of each variant for FcγRIIb.
(§2) Kinetic analyses for calculating the KD values of each altered antibody for FcγR were performed according to the following method. First, antibodies of interest were captured onto the above-mentioned sensor chips, and an Fcγ receptor diluted with the running buffer was allowed to interact. The Biacore Evaluation Software was used to globally fit the measured results to the obtained sensorgram using the 1:1 Langmuir binding model, and the association rate constant ka (L/mol/s) and the dissociation rate constant kd (1/s) were calculated; and from those values the dissociation constants KD (mol/L) were calculated.
T1 sequence (P08637 17-208 F176V): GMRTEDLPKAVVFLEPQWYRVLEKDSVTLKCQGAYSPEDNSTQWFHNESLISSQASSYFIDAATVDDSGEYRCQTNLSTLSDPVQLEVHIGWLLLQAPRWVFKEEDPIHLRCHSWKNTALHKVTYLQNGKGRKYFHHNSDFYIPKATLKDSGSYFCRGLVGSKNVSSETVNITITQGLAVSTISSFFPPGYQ

[2] = target: T2, FcγRIIa type R extracellular domain with C-terminal His tag (human, UniProt P12318 34-217); assay: SPR (Biacore), antibody captured, FcγR analyte
T2 chain: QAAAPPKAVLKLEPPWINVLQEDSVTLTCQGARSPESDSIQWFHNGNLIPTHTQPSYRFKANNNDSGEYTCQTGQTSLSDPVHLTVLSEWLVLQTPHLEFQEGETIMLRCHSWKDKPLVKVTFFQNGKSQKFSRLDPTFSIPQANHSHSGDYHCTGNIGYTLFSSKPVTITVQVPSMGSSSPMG
Description: as §1, §2

[3] = target: T3, FcγRIIb extracellular domain with C-terminal His tag (human, UniProt P31994 43-217); assay: SPR (Biacore), antibody captured, FcγR analyte
T3 construct: extracellular domain; also called FcgRIIb; FcγRIIb extracellular region; not shown: His tag at the C terminus
T3 sequence (looked up): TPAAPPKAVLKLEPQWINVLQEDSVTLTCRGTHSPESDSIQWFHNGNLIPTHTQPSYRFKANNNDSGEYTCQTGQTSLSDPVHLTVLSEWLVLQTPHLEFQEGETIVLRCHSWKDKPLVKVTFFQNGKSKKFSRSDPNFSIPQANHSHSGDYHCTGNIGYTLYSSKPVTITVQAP
Description: as §1, §2

[4] = target: T4, FcγRIIIa type V extracellular domain with C-terminal His tag (human, UniProt P08637 17-208); assay: SPR (Biacore)
T4 construct: extracellular domain; also called FcgRIIIaV; FcγRIIIaV
T4 sequence (P08637 17-208 F176V): as the sequence (P08637 17-208 F176V) above

[5] = target: T5, FcγRIIa type R extracellular domain with C-terminal His tag (human, UniProt P12318 34-217); assay: SPR (Biacore)
T5 construct: extracellular domain; also called FcgRIIaR; FcγRIIaR
T5 sequence (looked up): T2 chain

[6] = target: T6, FcγRIa extracellular domain with C-terminal His tag (human, UniProt P12314 16-292); assay: SPR (Biacore)
T6 construct: also called FcgRIa
T6 sequence (P12314 16-292): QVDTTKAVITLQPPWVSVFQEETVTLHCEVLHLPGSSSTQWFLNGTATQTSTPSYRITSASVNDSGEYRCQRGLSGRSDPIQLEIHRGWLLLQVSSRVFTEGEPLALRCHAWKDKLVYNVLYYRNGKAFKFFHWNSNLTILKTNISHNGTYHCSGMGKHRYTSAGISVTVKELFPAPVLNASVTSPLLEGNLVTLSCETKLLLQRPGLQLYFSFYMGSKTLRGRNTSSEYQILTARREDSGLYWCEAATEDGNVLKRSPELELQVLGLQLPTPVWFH

[7] = target: T7, FcγRIIb extracellular domain, C-terminal His tag (human, UniProt P31994 43-217); assay: SPR (Biacore), antibody captured, FcγR as analyte
T7 construct: extracellular domain; also called FcgRIIb; CD32B; not shown: His tag at the C terminus
T7 sequence (looked up): T3 sequence (looked up)
Description: as §1, with “respectively represent” for “respectively show”, “to the” for “to a”
as §2

[8] = target: T8, FcγRIIa type H extracellular domain with C-terminal His tag (human, UniProt P12318 34-217); assay: SPR (Biacore)
T8 construct: extracellular domain; also called FcgRIIaH; FcγRIIaH
T8 sequence (looked up): T2 chain with R134H

[9] = target: T9, FcγRIIa type R extracellular domain, C-terminal His tag (human, UniProt P12318 34-217); assay: SPR (Biacore), antibody captured, FcγR as analyte
T9 construct: extracellular domain; also called FcgRIIaR; FcγRIIaR; not shown: His tag at the C terminus
T9 sequence (looked up): T2 chain
Description: as §1, with “respectively represent” for “respectively show”, “to the” for “to a”
as §2

[10] = target: T10, FcγRIIb extracellular domain with C-terminal His tag (human, UniProt P31994 43-217); assay: SPR (Biacore)
T10 construct: extracellular domain; also called FcgRIIb
T10 sequence (looked up): T3 sequence (looked up)

[11] = target: T3, FcγRIIb extracellular domain with …; assay: SPR (Biacore): antibody captured on the chip, FcγRIIb as analyte; amount bound per amount captured, relative to GpH7-B3/GpL16-k0 = 100

- Kd [1]: 37 µM
- Kd [2]: 16 µM
- Kd [3]: 2 µM
B1: IL6R-PD042/IL6R-L (antibody, human IgG1, kappa)
heavy: QVQLQESGPGLVKPSETLSLTCAVSGHSISHDHAWSWVRQPPGEGLEWIGFISYSGITNYNPSLQGRVTISRDNSKNTLYLQMNSLRAEDTAVYYCARSLARTTAMDYWGEGTLVTVSSASTKGPSVFPLAPSSKSTSGGTAALGCLVKDYFPEPVTVSWNSGALTSGVHTFPAVLQSSGLYSLSSVVTVPSSSLGTQTYICNVNHKPSNTKVDKKVEPKSCDKTHTCPPCPAPEWLGGDSVFLFPPKPKDTLYISRTPEVTCVVVDVSHEDPEVKFNWYVDGVEVHNAKTKPREEQYNSTYRVVSVLTVLHQDWLNGKEYKCKVSNKALPAPIEKTISKAKGQPREPQVYTLPPSRDELTKNQVSLTCLVKGFYPSDIAVEWESNGQPENNYKTTPPVLDSDGSFFLYSKLTVDKSRWQQGNVFSCSVMHEALHYHYTQKSLSLSP
light: not shown
notes: IL6R-F11 with P238D/L234W; copies: 2 + 2

- Kd [4]: 45 µM
B2: IL6R-BP190/IL6R-L (antibody, human IgG1, kappa)
heavy: B1 heavy with W236L, G239D, Y254M, H270D, P273G, A332K, Y436N, K441E
light: not shown
notes: G237D/P238D/H268D/P271G/A330K (EU) in IL6R-B3; copies: 2 + 2

- Kd [1]: 43 µM
- Kd [2]: 21 µM
- Kd [3]: 2 µM
B3: IL6R-PD080/IL6R-L (antibody, human IgG1, kappa)
heavy: B1 heavy with W236L, G239D
light: not shown
notes: IL6R-F11 with P238D/G237D; copies: 2 + 2

- Kd [1]: 37 µM
- Kd [2]: 32 µM
- Kd [3]: 3 µM
B4: IL6R-PD079/IL6R-L (antibody, human IgG1, kappa)
heavy: B1 heavy with W236L, G239A
light: not shown
notes: IL6R-F11 with P238D/G237A; copies: 2 + 2

- Kd [1]: 38 µM
- Kd [2]: 7.2 µM
B5: IL6R-PD094/IL6R-L (antibody, human IgG1, kappa)
heavy: B1 heavy with W236L, G239W
light: not shown
notes: IL6R-F11 with P238D/G237W; copies: 2 + 2

- Kd [5]: 4.2 µM
- Kd [4]: 68 µM
B6: IL6R-BP085/IL6R-L (antibody, human IgG1, kappa)
heavy: B1 heavy with W236L, G239D, Y254M, A332K, Y436N, K441E
light: not shown
notes: G237D/P238D/A330K (EU) in IL6R-B3; copies: 2 + 2

- Kd [6]: 0.098 µM
- Kd [4]: 70 µM
B7: IL6R-BP180/IL6R-L (antibody, human IgG1, kappa)
heavy: B1 heavy with W236L, G239D, Y254M, P273G, A332K, Y436N, K441E
light: not shown
notes: G237D/P238D/P271G/A330K (EU) in IL6R-B3; copies: 2 + 2

- Kd [7]: 0.8 µM
B8: IL6R-BP136/IL6R-L (antibody, human IgG1, kappa)
heavy: B1 heavy with W236L, Y254M, K328A, Y436N, K441E
light: not shown
notes: IgG1; P238D/K326A (EU numbering) introduced into IL6R-B3

- Kd [5]: 2.6 µM
- Kd [4]: 56 µM
B9: IL6R-BP183/IL6R-L (antibody, human IgG1, kappa)
heavy: B1 heavy with E235D, W236Y, Y254M, P273G, K328A, A332K, Y436N, K441E
light: not shown
notes: E233D/L234Y/P238D/P271G/K326A/A330K (EU) in IL6R-B3; copies: 2 + 2

- Kd [5]: 2.3 µM
- Kd [8]: 30 µM
- Kd [4]: 66 µM
B10: IL6R-BP184/IL6R-L (antibody, human IgG1, kappa)
heavy: B1 heavy with E235D, W236L, Y254M, P273G, A332K, Y436N, K441E
light: not shown
notes: E233D/P238D/P271G/A330K (EU) in IL6R-B3; copies: 2 + 2

- Kd [1]: 17 µM
- Kd [2]: 3.5 µM
B11: IL6R-PD097/IL6R-L (antibody, human IgG1, kappa)
heavy: B1 heavy with W236L, S241D
light: not shown
notes: IL6R-F11 with P238D/S239D; copies: 2 + 2

- Kd [1]: 42 µM
- Kd [2]: 7.9 µM
B12: IL6R-PD095/IL6R-L (antibody, human IgG1, kappa)
heavy: B1 heavy with W236L, G239Y
light: not shown
notes: IL6R-F11 with P238D/G237Y; copies: 2 + 2

- Kd [9]: 8.4 µM
- Kd [7]: 0.9 µM
B13: IL6R-BP102/IL6R-L (antibody, human IgG1, kappa)
heavy: B1 heavy with W236L, Y254M, S269Q, Y436N, K441E
light: not shown
notes: IgG1; P238D/S267Q (EU numbering) introduced into IL6R-B3

- Kd [5]: 5 µM
- Kd [4]: 50 µM
B14: IL6R-2B253/IL6R-L (antibody, human IgG1, kappa)
heavy: B1 heavy with E235D, W236L, Y254M, V325M, Y436N, K441E
light: not shown
notes: E233D/P238D/V323M (EU) in IL6R-B3; copies: 2 + 2

- Kd [8]: 7 µM
- Kd [4]: 30 µM
B15: IL6R-BP148/IL6R-L (antibody, human IgG1, kappa)
heavy: B1 heavy with E235D, W236Y, G239D, Y254M, K328A, A332K, Y436N, K441E
light: not shown
notes: E233D/L234Y/G237D/P238D/K326A/A330K (EU) in IL6R-B3; copies: 2 + 2

- Kd [5]: 2.8 µM
- Kd [6]: 0.025 µM
- Kd [4]: 56 µM
B16: IL6R-BP187/IL6R-L (antibody, human IgG1, kappa)
heavy: B1 heavy with W236Y, Y254M, P273G, K328A, A332K, Y436N, K441E
light: not shown
notes: L234Y/P238D/P271G/K326A/A330K (EU) in IL6R-B3; copies: 2 + 2

- Kd [9]: 9.2 µM
- Kd [7]: 0.8 µM
B17: IL6R-BP117/IL6R-L (antibody, human IgG1, kappa)
heavy: B1 heavy with W236L, Y254M, K328D, Y436N, K441E
light: not shown
notes: IgG1; P238D/K326D (EU numbering) introduced into IL6R-B3

- Kd [5]: 0.88 µM
- Kd [4]: 36 µM
- Kd [10]: 0.069 µM
B18: IL6R-BP185/IL6R-L (antibody, human IgG1, kappa)
heavy: B1 heavy with E235D, W236Y, G239D, Y254M, P273G, K328A, A332K, Y436N, K441E
light: not shown
notes: E233D/L234Y/G237D/P238D/P271G/K326A/A330K (EU) in IL6R-B3; copies: 2 + 2

- Kd [9]: 9.6 µM
- Kd [7]: 1 µM
B19: IL6R-BP120/IL6R-L (antibody, human IgG1, kappa)
heavy: B1 heavy with W236L, Y254M, K328E, Y436N, K441E
light: not shown
notes: IgG1; P238D/K326E (EU numbering) introduced into IL6R-B3

- binding result [11]: binds
B20: G237A (antibody, human IgG1, kappa)
heavy chain: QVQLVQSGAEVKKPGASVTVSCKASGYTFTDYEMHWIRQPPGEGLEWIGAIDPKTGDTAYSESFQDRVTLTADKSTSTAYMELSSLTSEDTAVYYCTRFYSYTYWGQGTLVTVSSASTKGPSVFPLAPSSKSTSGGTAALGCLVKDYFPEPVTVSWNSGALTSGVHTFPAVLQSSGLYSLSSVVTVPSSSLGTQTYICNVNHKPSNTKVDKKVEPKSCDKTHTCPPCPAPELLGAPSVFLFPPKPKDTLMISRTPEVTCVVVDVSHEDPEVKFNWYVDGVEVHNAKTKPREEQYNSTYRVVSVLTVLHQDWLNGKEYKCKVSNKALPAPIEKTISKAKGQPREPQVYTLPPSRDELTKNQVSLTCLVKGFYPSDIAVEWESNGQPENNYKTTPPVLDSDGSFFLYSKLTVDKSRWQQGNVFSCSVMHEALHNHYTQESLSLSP
light chain: DIVMTQSPLSLPVTPGEPASISCQASESLVHSNRNTYLHWYLQKPGQSPQLLIYKVSNRFSGVPDRFSGSGSGTDFTLKISRVEAEDVGVYYCSQNTHVPPTFGQGTKVEIERTVAAPSVFIFPPSDEQLKSGTASVVCLLNNFYPREAKVQWKVDNALQSGNSQESVTEQDSKDSTYSLSSTLTLSKADYEKHKVYACEVTHQGLSSPVTKSFNRGEC
notes: Named on the sheet only by its alteration; also called B3 variant of GpH7-B3/GpL16-k0 with G237A (no P238D)

- binding result [11]: binds
B21: L234W (antibody, human IgG1, kappa)
heavy chain: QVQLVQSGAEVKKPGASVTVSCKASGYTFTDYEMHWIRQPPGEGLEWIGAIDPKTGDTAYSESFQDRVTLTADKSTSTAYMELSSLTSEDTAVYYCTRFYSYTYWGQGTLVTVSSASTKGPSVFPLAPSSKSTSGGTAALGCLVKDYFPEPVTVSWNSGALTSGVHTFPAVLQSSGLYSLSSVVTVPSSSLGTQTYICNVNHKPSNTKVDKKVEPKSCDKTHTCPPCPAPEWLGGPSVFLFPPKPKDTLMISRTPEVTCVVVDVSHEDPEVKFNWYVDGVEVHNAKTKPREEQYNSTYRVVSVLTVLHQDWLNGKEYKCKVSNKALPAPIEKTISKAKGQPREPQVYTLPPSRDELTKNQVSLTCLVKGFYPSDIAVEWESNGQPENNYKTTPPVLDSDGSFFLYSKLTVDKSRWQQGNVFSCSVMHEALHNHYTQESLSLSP
light chain: B20 light chain
notes: Named on the sheet only by its alteration; also called B3 variant of GpH7-B3/GpL16-k0 with L234W (no P238D)

- binding result [11]: binds
B22: G237E (antibody, human IgG1, kappa)
heavy chain: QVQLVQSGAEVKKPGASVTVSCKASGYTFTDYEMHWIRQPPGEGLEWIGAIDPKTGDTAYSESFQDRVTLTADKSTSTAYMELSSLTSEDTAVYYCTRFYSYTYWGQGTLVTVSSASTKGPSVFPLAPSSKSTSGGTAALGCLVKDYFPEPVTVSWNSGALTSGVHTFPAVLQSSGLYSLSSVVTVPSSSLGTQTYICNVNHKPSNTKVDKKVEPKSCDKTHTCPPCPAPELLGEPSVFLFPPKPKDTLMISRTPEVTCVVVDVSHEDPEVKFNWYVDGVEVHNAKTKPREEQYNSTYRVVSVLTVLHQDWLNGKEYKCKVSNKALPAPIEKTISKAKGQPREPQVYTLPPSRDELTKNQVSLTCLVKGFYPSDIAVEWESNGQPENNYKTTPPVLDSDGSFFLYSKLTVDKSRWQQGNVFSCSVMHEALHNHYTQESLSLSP
light chain: B20 light chain
notes: Named on the sheet only by its alteration; also called B3 variant of GpH7-B3/GpL16-k0 with G237E (no P238D)

- binding result [11]: binds
B23: G237Y (antibody, human IgG1, kappa)
heavy chain: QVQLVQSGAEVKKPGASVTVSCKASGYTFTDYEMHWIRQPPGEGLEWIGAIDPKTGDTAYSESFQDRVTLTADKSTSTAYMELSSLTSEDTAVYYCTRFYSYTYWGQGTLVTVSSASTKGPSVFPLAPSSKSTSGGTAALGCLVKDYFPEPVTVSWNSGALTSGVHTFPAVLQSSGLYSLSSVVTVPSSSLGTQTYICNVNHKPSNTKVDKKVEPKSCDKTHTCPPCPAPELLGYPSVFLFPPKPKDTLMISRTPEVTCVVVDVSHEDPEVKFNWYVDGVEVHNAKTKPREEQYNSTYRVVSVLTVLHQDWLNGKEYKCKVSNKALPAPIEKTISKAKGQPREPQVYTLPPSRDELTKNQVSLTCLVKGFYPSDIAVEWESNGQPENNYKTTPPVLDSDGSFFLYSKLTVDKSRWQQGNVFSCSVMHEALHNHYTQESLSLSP
light chain: B20 light chain
notes: Named on the sheet only by its alteration; also called B3 variant of GpH7-B3/GpL16-k0 with G237Y (no P238D)

- binding result [11]: binds
B24: G237D (antibody, human IgG1, kappa)
heavy chain: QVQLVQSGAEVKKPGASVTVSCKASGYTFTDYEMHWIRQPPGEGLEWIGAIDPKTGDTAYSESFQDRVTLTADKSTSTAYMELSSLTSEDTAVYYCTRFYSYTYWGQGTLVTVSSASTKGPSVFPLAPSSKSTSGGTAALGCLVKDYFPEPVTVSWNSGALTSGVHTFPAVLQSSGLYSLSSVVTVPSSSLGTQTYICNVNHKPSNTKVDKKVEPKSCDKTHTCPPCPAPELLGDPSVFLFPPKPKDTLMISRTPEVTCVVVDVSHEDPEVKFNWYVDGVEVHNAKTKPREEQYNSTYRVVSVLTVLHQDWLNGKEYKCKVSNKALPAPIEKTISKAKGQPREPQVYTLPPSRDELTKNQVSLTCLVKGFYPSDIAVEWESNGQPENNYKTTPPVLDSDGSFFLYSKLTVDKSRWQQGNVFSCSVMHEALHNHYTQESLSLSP
light chain: B20 light chain
notes: Named on the sheet only by its alteration; also called B3 variant of GpH7-B3/GpL16-k0 with G237D (no P238D)

- binding result [11]: binds
B25: G237M (antibody, human IgG1, kappa)
heavy chain: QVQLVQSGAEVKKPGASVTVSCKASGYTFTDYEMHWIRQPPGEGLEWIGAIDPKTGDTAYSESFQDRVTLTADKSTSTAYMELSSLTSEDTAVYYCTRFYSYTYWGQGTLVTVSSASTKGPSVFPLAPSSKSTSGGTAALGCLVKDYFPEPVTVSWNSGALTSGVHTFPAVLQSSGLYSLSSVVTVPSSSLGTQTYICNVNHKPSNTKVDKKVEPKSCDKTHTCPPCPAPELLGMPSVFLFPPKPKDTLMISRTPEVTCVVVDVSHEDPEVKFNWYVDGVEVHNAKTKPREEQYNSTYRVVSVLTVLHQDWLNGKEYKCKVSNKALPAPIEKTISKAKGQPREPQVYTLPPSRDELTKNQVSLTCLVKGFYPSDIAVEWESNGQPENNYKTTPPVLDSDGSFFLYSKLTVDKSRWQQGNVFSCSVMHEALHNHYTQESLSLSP
light chain: B20 light chain
notes: Named on the sheet only by its alteration; also called B3 variant of GpH7-B3/GpL16-k0 with G237M (no P238D)

- binding result [11]: binds
B26: G237L (antibody, human IgG1, kappa)
heavy chain: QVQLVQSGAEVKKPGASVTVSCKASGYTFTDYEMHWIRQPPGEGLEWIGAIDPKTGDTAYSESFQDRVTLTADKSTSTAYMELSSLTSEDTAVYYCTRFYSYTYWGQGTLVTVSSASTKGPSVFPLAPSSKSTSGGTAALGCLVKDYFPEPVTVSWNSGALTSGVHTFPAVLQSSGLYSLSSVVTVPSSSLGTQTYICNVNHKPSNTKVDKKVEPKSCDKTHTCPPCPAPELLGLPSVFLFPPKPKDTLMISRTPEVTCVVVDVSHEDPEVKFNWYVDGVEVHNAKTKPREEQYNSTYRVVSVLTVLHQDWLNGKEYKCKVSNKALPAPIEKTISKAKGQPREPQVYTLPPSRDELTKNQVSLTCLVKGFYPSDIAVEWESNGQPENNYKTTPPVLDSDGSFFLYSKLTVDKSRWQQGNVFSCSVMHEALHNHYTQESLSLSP
light chain: B20 light chain
notes: Named on the sheet only by its alteration; also called B3 variant of GpH7-B3/GpL16-k0 with G237L (no P238D)
